Results published in publication PMC6326811.

Biological target: FLAG-HA-tagged full-length wild-type TOE1 (human) (UniProt Q96GM8)
Test: co-IP; IP-TRAP: lysates of 293T cells transiently expressing FLAG-HA-tagged proteins incubated with anti-FLAG M2 beads at 4°C for 2 h; telomerase in the eluates read by its activity (Q-TRAP)

- telomerase activity brought down, relative to FLAG-TCAB1 (fraction of FLAG-TCAB1): 0.33
Substance: active telomerase (endogenous telomerase holoenzyme of 293T cells) (from UniProt O14746 1-1132) (complex)
